Data set [1] has as its target T1, SARS-CoV-2 N CTD+IDR (SARS-CoV-2, UniProt P0DTC9 250-419). Nature of the data set: BLI; BLI (Octet RED96e, SSA sensors, biotinylated RNA immobilised): PBS, 0.02% Tween 20, 25 C; pH not stated; 1:1 kinetic fit. As to conditions: protein: recombinant, tags: 6xHis-SUMO tag removed by Ulp1, chain copies: 2.
Data set [2] has as its target SARS-CoV-2 N-CTD (SARS-CoV-2, UniProt P0DTC9 250-365). Briefly: BLI. As to conditions: protein: recombinant; tags: 6xHis-SUMO tag removed by Ulp1; chain copies: 2; label: 5' biotin.
Data set [3] deals with T2, SARS-CoV-2 N LKR+CTD (SARS-CoV-2, UniProt P0DTC9 183-365). Nature of the data set: BLI; value order as in text ('respectively'); BLI (Octet RED96e, SSA sensors, biotinylated RNA immobilised): PBS, 0.02% Tween 20, 25 C; pH not stated; 1:1 kinetic fit. As to conditions: protein: recombinant; tags: 6xHis-SUMO tag removed by Ulp1; chain copies: 2; label: 5' biotin.
The target in data set [4] is T1, SARS-CoV-2 N CTD+IDR. Described as above. As to conditions: protein: recombinant; tags: 6xHis-SUMO tag removed by Ulp1; chain copies: 2; label: 5' biotin.
Data set [5] addresses T2, SARS-CoV-2 N LKR+CTD. Briefly: BLI; BLI (Octet RED96e, SSA sensors, biotinylated RNA immobilised): PBS, 0.02% Tween 20, 25 C; pH not stated; 1:1 kinetic fit. As to conditions: protein: recombinant; tags: 6xHis-SUMO tag removed by Ulp1; chain copies: 2; label: 5' biotin. A general note: Biolayer interferometry detects binding as a change in optical thickness at a sensor tip.

B1: Duplex TRS-1 (RNA1/RNA4) (dsRNA)
RNA 1: ACGAAC
RNA 2: GUUCGU
For orientation: Kd means the constant that tells how readily two partners part at equilibrium. With B1, the Kd in data set [1] (blunt, 6 bp) came to 29 µM.
As to ACGAAC (ssRNA) [TRS-1 (RNA1)], the Kd in data set [2] is 320 µM; in data set [3], 14 µM; in data set [4], 33 µM.
With AAACGAACUU (ssRNA) [TRS-3 (RNA3)], the dissociation constant Kd in data set [5] worked out at 61 µM; in data set [1] (label: 5' biotin), 5.9 µM; in data set [2], 150 µM.

B2: Duplex TRS-2 (RNA2/RNA5) (dsRNA)
RNA 1: AAACGAAC
RNA 2: GUUCGUUU
Turning to B2, the Kd in data set [1] (blunt, 8 bp) was found to be 18 µM.

B3: Duplex TRS-3 (RNA3/RNA6) (dsRNA)
RNA 1: AAACGAACUU
RNA 2: AAGUUCGUUU
With B3, in data set [1] (blunt, 10 bp), the Kd came to 11 µM.
As for AAACGAAC (ssRNA) [TRS-2 (RNA2)], the Kd was determined as 17 µM in data set [5], 9.1 µM in data set [1] (label: 5' biotin) and 180 µM in data set [2].

B4: Unpaired Duplex TRS-2 (RNA2/RNA4) (dsRNA)
RNA 1: AAACGAAC
RNA 2: GUUCGU
Consider B4, for which the equilibrium dissociation constant (Kd) in data set [1] (5' overhang 2 nt (AA) on strand 1 per Methods) came out at 33 µM.

B5: Unpaired Duplex TRS-1 (RNA1/RNA5, TRS1-cTRS2) (dsRNA)
RNA 1: ACGAAC
RNA 2: GUUCGUUU
As to B5, the Kd in data set [1] (3' overhang 2 nt (UU) on strand 2) worked out at 23 µM.

Source of the values: article PMC7835709, “Structural Insight Into the SARS-CoV-2 Nucleocapsid Protein C-Terminal Domain Reveals a Novel Recognition Mechanism for Viral Transcriptional Regulatory Sequences”.
